{
  "source": "patent US20210246166A1",
  "about": "(Bayer, published 2021)",
  "assay_in_all_cases": "cell-based or functional assay",
  "key": {"[1]": {"target": "Recombinant rat MASP2 enzyme (fragment corresponding to amino acids 296-685, C-terminal His Tag) (rat, UniProt Q9JJS8 296-685)", "sequence (Q9JJS8 other isoform, or with tags, fused parts or gaps limits assumed)": "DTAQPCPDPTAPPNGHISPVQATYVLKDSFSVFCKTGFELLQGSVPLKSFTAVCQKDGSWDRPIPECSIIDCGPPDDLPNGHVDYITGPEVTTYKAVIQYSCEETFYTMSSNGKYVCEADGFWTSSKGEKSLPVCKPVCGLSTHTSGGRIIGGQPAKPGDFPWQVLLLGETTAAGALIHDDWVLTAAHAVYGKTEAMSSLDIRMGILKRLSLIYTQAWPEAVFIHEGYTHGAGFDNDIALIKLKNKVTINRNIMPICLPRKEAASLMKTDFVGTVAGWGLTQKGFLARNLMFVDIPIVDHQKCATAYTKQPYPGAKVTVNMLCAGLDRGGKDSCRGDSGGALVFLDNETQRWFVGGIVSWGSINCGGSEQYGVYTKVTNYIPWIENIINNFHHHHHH"}, "[2]": {"target": "T1, Recombinant rat MASP1 enzyme (fragment corresponding to amino acids 302-704, C-terminal His Tag) (rat, UniProt Q8CHN8 302-704)", "T1 sequence": "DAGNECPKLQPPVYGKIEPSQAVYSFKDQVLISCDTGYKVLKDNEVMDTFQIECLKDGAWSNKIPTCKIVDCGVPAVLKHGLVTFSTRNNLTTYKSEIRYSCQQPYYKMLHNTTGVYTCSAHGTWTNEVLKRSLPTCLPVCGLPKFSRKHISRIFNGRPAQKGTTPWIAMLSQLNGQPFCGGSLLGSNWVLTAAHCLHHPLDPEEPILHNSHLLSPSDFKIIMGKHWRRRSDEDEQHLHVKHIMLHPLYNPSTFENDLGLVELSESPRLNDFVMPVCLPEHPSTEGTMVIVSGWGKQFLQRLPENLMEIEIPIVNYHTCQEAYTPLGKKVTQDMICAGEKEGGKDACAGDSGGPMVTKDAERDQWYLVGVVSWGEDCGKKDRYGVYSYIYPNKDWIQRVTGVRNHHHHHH"}, "[3]": {"target": "Recombinant human MASP2 active protease (amino acids 297-686, C-terminal His Tag) (human, UniProt O00187 297-686)", "sequence (O00187 other isoform, or with tags, fused parts or gaps limits assumed)": "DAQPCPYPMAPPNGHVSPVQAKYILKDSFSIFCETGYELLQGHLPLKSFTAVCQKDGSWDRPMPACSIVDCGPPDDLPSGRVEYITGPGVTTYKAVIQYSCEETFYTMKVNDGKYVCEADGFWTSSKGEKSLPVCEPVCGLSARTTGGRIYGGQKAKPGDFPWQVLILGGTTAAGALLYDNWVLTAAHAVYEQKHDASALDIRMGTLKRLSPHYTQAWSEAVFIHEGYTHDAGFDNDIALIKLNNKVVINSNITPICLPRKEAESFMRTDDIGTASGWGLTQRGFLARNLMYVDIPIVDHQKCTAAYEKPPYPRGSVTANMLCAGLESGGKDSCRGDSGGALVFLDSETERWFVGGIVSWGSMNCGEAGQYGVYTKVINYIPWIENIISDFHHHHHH"}, "[4]": {"target": "T2, Recombinant human MASP1 active protease (amino acids 297-699, C-terminal His Tag) (human, UniProt P48740 297-699)", "T2 sequence": "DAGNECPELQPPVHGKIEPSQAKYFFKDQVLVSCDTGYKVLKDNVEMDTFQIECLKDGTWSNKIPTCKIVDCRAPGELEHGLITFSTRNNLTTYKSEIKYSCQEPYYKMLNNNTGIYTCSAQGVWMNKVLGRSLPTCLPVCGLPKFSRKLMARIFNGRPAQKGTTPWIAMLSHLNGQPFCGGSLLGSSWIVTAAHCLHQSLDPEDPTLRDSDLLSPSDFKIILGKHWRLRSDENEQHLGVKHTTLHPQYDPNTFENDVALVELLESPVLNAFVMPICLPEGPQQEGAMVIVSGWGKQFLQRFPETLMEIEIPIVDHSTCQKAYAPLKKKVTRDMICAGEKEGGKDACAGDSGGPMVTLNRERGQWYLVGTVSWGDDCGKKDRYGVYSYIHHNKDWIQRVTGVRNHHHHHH"}},
  "note": "Bridge positions count the residues as written; N and C are the ends. Ends that are not written are not given here.",
  "data": [
    {"binder": "AICSRSLPPICIPD-OH (disulfide 3-11; N-terminus assumed; SMILES CC[C@H](C)[C@H](NC(=O)[C@H](C)N)C(=O)N[C@H]1CSSC[C@@H](C(=O)N[C@H](C(=O)N2CCC[C@H]2C(=O)N[C@@H](CC(=O)O)C(=O)O)[C@@H](C)CC)NC(=O)[C@H]([C@@H](C)CC)NC(=O)[C@@H]2CCCN2C(=O)[C@@H]2CCCN2C(=O)[C@H](CC(C)C)NC(=O)[C@H](CO)NC(=O)[C@H](CCCNC(=N)N)NC(=O)[C@H](CO)NC1=O)", "note": "[AIC+SRSLPPIC+IPD-OH]", "values": [
      {"measurement": "rat MASP2 IC50", "setting": "[1]", "value": 68.4, "unit": "nM"},
      {"measurement": "rat MASP1 IC50", "setting": "[2]", "value": 50.2, "unit": "nM"}
    ]},
    {"binder": "AICSRSLPPICIPD-OH (disulfide 3-11; also: TFA salt)", "note": "[Ala-1 SFMI-1, AIC+SRSLPPIC+IPD-OH (Reference No A)]", "values": [
      {"measurement": "human MASP2 IC50 (FRET substrate cleavage, enzyme activity)", "setting": "[3]", "value": 914, "unit": "nM"},
      {"measurement": "human MASP1 IC50 (FRET substrate cleavage, enzyme activity)", "setting": "[4]", "value": 7.45, "unit": "nM"}
    ]},
    {"binder": "AICSRSLPPICIPD-NH2 (disulfide 3-11; also: TFA salt)", "note": "[Ala-1 SFMI-1 amide, AIC+SRSLPPIC+IPD-NH2 (Reference No B)]", "values": [
      {"measurement": "human MASP2 IC50 (FRET substrate cleavage, enzyme activity)", "setting": "[3]", "value": 390, "unit": "nM"},
      {"measurement": "human MASP1 IC50 (FRET substrate cleavage, enzyme activity)", "setting": "[4]", "value": 8, "unit": "nM"}
    ]},
    {"binder": "GICSRSLPPICIPD-OH (disulfide 3-11; also: TFA salt)", "note": "[SFMI-1, GIC+SRSLPPIC+IPD-OH (Reference No 1)]", "values": [
      {"measurement": "human MASP2 IC50 (FRET substrate cleavage, enzyme activity)", "setting": "[3]", "value": 1090, "unit": "nM"},
      {"measurement": "human MASP1 IC50 (FRET substrate cleavage, enzyme activity)", "setting": "[4]", "value": 15.6, "unit": "nM"}
    ]},
    {"binder": "GICSRSLPPICIPD-NH2 (disulfide 3-11; also: TFA salt)", "note": "[SFMI-1 amide, GIC+SRSLPPIC+IPD-NH2 (Reference No 3)]", "values": [
      {"measurement": "human MASP2 IC50 (FRET substrate cleavage, enzyme activity)", "setting": "[3]", "value": 610, "unit": "nM"},
      {"measurement": "human MASP1 IC50 (FRET substrate cleavage, enzyme activity)", "setting": "[4]", "value": 18, "unit": "nM"}
    ]},
    {"binder": "GICSRSLPPICIPD-OH (disulfide 3-11; N-terminus assumed; SMILES CC[C@H](C)[C@H](NC(=O)CN)C(=O)N[C@H]1CSSC[C@@H](C(=O)N[C@H](C(=O)N2CCC[C@H]2C(=O)N[C@@H](CC(=O)O)C(=O)O)[C@@H](C)CC)NC(=O)[C@H]([C@@H](C)CC)NC(=O)[C@@H]2CCCN2C(=O)[C@@H]2CCCN2C(=O)[C@H](CC(C)C)NC(=O)[C@H](CO)NC(=O)[C@H](CCCNC(=N)N)NC(=O)[C@H](CO)NC1=O)", "note": "[GIC+SRSLPPIC+IPD-OH]", "values": [
      {"measurement": "rat MASP2 IC50", "setting": "[1]", "value": 68, "unit": "nM"},
      {"measurement": "rat MASP1 IC50", "setting": "[2]", "value": 68.6, "unit": "nM"}
    ]},
    {"binder": "AICSRSLPPICIPD-NH2 (disulfide 3-11; N-terminus assumed; SMILES CC[C@H](C)[C@H](NC(=O)[C@H](C)N)C(=O)N[C@H]1CSSC[C@@H](C(=O)N[C@H](C(=O)N2CCC[C@H]2C(=O)N[C@@H](CC(=O)O)C(N)=O)[C@@H](C)CC)NC(=O)[C@H]([C@@H](C)CC)NC(=O)[C@@H]2CCCN2C(=O)[C@@H]2CCCN2C(=O)[C@H](CC(C)C)NC(=O)[C@H](CO)NC(=O)[C@H](CCCNC(=N)N)NC(=O)[C@H](CO)NC1=O)", "note": "[AIC+SRSLPPIC+IPD-NH2]", "values": [
      {"measurement": "rat MASP2 IC50", "setting": "[1]", "value": 54.2, "unit": "nM"},
      {"measurement": "rat MASP1 IC50", "setting": "[2]", "value": 83.4, "unit": "nM"}
    ]},
    {"binder": "AICSRSLPPICIPD-NH2 (disulfide 3-11; also: HCl salt)", "note": "[Ala-1 SFMI-1 HCl amide, AIC+SRSLPPIC+IPD-NH2 (HCl Salt) (Reference No C)]", "values": [
      {"measurement": "human MASP2 IC50 (FRET substrate cleavage, enzyme activity)", "setting": "[3]", "value": 3000, "unit": "nM"},
      {"measurement": "human MASP1 IC50 (FRET substrate cleavage, enzyme activity)", "setting": "[4]", "value": 3.6, "unit": "nM"}
    ]},
    {"binder": "GICSRSLPPICIPD-OH (disulfide 3-11; also: HCl salt)", "note": "[SFMI-1 HCl, GIC+SRSLPPIC+IPD-OH (HCl Salt) (Reference No 2)]", "values": [
      {"measurement": "human MASP2 IC50 (FRET substrate cleavage, enzyme activity)", "setting": "[3]", "value": 610, "unit": "nM"},
      {"measurement": "human MASP1 IC50 (FRET substrate cleavage, enzyme activity)", "setting": "[4]", "value": 18, "unit": "nM"}
    ]},
    {"binder": "AICSRSLPPICIPD-NH2 (disulfide 3-11; also: HCl salt)", "note": "[AIC+SRSLPPIC+IPD-NH2 (HCl Salt)]", "values": [
      {"measurement": "rat MASP1 IC50", "setting": "[2]", "value": 210, "unit": "nM"}
    ]}
  ]
}
